Four sequences from publication PMC6181373 can be followed below.

Several values for one entry are separate records, joined by “and”; a condition that tells them apart may be missing. Equal entries are not always repeated.

Usually Kd stands for the constant that tells how readily two partners part at equilibrium. High values mean a looser complex, low ones a tighter complex.

Common to all, as to experiment: SPRi
Common to all, as to conditions: 5' disulfide, aptamer on gold chip, 10 mM HEPES, 120 mM NaCl, 10 mM KCl, 5 mM MgCl2, pH 7.4, targets in PBS with 0.1% Tween, random-DNA signal subtracted, temperature …

The target of data set [1] is LDL particle (all LDL-P; ApoB100 lipoprotein) (UniProt P04114).
In data set [2] the target is SD-LDL (small dense LDL particle; ApoB100 lipoprotein) (UniProt P04114).
For data set [3], the system named is HDL particle.
Data set [4] addresses LDL particle (all LDL-P; ApoB100 lipoprotein) (UniProt P04114). The source holds these as a separate data set.
For data set [5], the target named is LF-LDL (LDL subfraction particle; ApoB100 lipoprotein) (UniProt P04114).

Regarding “AACTACATGGTATGTGGTGAACTAAACCATTCTTGTCTCGCATTTTTCTCTTTTATATTATTTGACGTACAATGTACCC [LDL-A38]”, the Kd in data set [1] is 0.0455 nM; in data set [2], 0.234 nM; in data set [3], 11.5 nM; in data set [4] it was 0.0207 nM and 0.0178 nM.

With “AACTACATGGTATGTGGTGAACTAACCTTAATTTACCCTTGTTTTATCATTTCCATCATAGCTGACGTACAATGTACCC [LDL-A12]”, the equilibrium dissociation constant (Kd) is 0.0497 nM in data set [1]; 0.023 nM in data set [2]; 9.69 nM in data set [3]; 0.0108 nM and 0.0466 nM in data set [4].

“AACTACATGGTATGTGGTGAACTACCTCGATTTTATATTATTTCGCTTACCAACAACTGCAGAGACGTACAATGTACCC [LDL-A1]”: the Kd in data set [1] was 0.0531 nM; in data set [2], 0.302 nM; in data set [5], 0.0327 nM; in data set [3] it was 8.26 nM; in data set [4], 0.0214 nM.

On to “AACTACATGGTATGTGGTGAACTGTCAGCTTCTTCTATATAATTCACCTTGCCTCTCGTTCCTGACGTACAATGTACCC [LDL-A2]”, for which the equilibrium dissociation constant (Kd) was 0.0421 nM in data set [1]; 0.0159 nM in data set [5]; 7.25 nM in data set [3]; 0.015 nM and 0.00512 nM in data set [4].
